# Paper PMC11253692
# Target: TGF-β1 (human, UniProt P01137 279-390)
# Experiment: ELISA
# Chain of TGF-β1 (P01137 279-390): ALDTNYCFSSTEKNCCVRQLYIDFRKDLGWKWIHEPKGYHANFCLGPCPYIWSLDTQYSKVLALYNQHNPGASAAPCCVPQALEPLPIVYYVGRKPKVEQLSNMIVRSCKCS
binder,measurement,value
"TGF-β1 aptamer (ssDNA, 5'-SH (coupled to PEG-maleimide hydrogel)) DNA: CGCTCGGCTTCACGAGATTCGTGTCGTTGTGTCCTGTACCCGCCTTGACCAGTCACTCTAGAGCATCCGGACTG",binding signal,"> 60 % bound (highest binding ratio, reached at 4 h)"
